The data set is described as follows: protease stability score; higher = more stable; yeast display proteolysis, trypsin and chymotrypsin.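 Also: relative to predicted unfolded state with 0 unfolded-like and 1 meaning tenfold more protease.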
“DEEEKDVQKILKIMIESMKTGDEHTIERLVDPHVRLIINGKRLHGWELFVKIVHHEAEHARVDEIRIDHMHVIDGRAHLYLTIKRTVGDKHIKLDLEFIWSKFDGRWHVEEERRE” gave a protease stability score of 1.14.

Turning to “DEEEKDVRFFIKLLVHSLRTGDERALKHLLDPNVRMDINGREKIGWHQLRELLEEWRMHDIHITSVEVQGEKLFSHGLLEGVIGDKRVELEVEHTARKIDGRWIYTEVKFR”, the protease stability score was 1.32. “DEEEKEAEDFFHDWVHSMLTGDEDTLRRMIDPHVKIQVGDKEFHGMKWATRMYREIRIEDMRLRRVHVINGKADIHSITHTNINGRQEDIHITIIIEKVDGRWILRSVIIR” yielded a protease stability score of 2.13. The figure for “DEEEKEAKHASERINHDFLTGDWKSLEKLADPETRLIVNGRDFHGRERVLHELVRFYHELGVNHFRIRDIRVIGNKIHVDNQIDVGEKHNEMHVISSKVNGRWVLHTVELN” is 1.23; for “DEEEKEAREALEEFIRSVHTGDEDHMVWMFDPNTRIEVGDKKLHGRELAEEFAERWKKHIRLEDVNLTEVHVQGEKVHIRGILHGTVGDKEVRRESEVMMLKVDGRWFLHSIKFK” it is 0.463; for “DEEEKEATHYLELFWKLKETGDWDELHRLLDPNVRLRINGKDVHGMERVTEEHLKRMKEIRIRHYHLDELRVQGDFVHIDVRVNGEIDGKRNMIEFHFHARKVDGRWFLHEVRIR” it is 1.79. “DEEEKEAVRHWELFMKAELTGDEEKLKNLADPNTRILFNGVEQIGWEELIRKLREIRIKLHDYRVHQVDRIDGRVILDFRVDIILYVGDKFFKHEIRVHVFILKYDGKWILEYEEIK” showed a protease stability score of 0.736. The figure for “DEEEKEAYIWLELLLEHERTGNEEEIMHLADPHTRLQFNGVESHGRERFFEHVRHKIRHMRVEIRIRNFEFQGEYAHLHGEDILRIGDKTERIDMRFVLLVVNGRIKSIHIHVH” is 0.694; for “DEEEKEDHKMLHDFIHLWLTGDEEDWSHLADPRTRLILIQGDKVIDRHGMELASEELRRILEEMRVDDFKVEHVEVINGKSKVHGKTDVTFNGKREIIDIHIELHVVNGRMKTVKMVWI” it is 0.927. As to “DEEEKEFEFAEQVLKESLLTGDERTLKELMDPHVRLEQGDKLYIGRESFIKWWSKRREELGINHLHYRIKEVHIVNGRVRVNSHIEIIIGDKRHEEKVHFVLLKINGRWLMESVHME”, the protease stability score was determined as 1.46. For the sequence “DEEEKEIKEMLHEYLRAVETGDEHTLHRLMDPHVRIDVNGRQVVGREEWLKILRELGIKVSELIFRDIKFQGDKVNIDAEERLHYNGRTVTTRVTITAWKYDGRWTVQSKKVD”, the protease stability score was 2.04. “DEEEKEIRHQAEHWFHIILTGDEDTLRNLADPNVRSVWVIGDYERHEHGMDEHNKILKEWRFEEYRRDSIHAINGRVHLDIRSVMTINGKRMSFRIHIDIHVVNGVRKSITIRIE”: the protease stability score is 0.702. The figure for “DEEEKEMKEALHEQKRSHETGDERVLEELIDPNVRLDINGREHHGREEAIRLWHELGIDHFDIRDFRVVNGRAHIDGHMVINGQRVDVTLIVHKINGRWRQHHIVVR” is 0.04; for “DEEEKEMKEIMHMLDHWLRTGDEETLNHYLDPNVRLIIFIDGRNLTSIGREESRELWRYVVEEWRIHDMHVTEVRSQGDKAESNTRLKGHVNGVERTLIQHIEVDVVDGRIKRIIIRVH” it is 2.1; for “DEEEKEMRELFHHIIRLIDTGDFDTLKQLADPNTQLHIGDKHSHGREEVVRMNRHWRYHDSKIRDSHVVNGVIHVDAESNLKFDGVRTVTHVRLILYVVDGRLKSLEIRIE” it is 0.44. Take “DEEEKESEEAFRIHKEVLETGDEHLIERMLDPNTRIIIGDKNIHGRESALETMIKLGVKHVHIRRWNDFNGRAENDVQMRFNGRTHEVHLFALKFNGRWLMHEIEFR”: the protease stability score amounted to 1.25. Consider “DEEEKESRLALEEFLTMMKTGDEDRFTELADPHARSHYNGREHHGREVFLDWFRRVKGLKVDLQHVKTFNGRIIIHVRFHYDGVTYYVEIFVEKFDGRWYLTRVHHI”, for which the protease stability score was 0.421. Sequence “DEEEKEVHKFMDLLVRALETGDEDEFLSLVDPNARVEIGDKLLHGRESEHWLTEHIKKVAGVERFTHHIHLKDWTIFNGRVRVDGILHLDYGNFHVERRSDFIIYKVDGRWIMRSERVH” showed a protease stability score of 0.185. Sequence “DEEEKFSREVMELHIELWETGDEDTLTRLADPHAKFVLEWNGRNHTNHGMDVLIHMLHRLLKELGIKHTELRRKDVIGDKNHIHRRVIVNGVPTDLDLELVIIDGKLREYRIHIRIR” returned a protease stability score of 1.56.

In turn, “DEEEKHARKVFRELEESLRTGDEHSMRRLLDPHTKIIINGQEHVGMEHADKFVHELRLKDSKIRHLEMHVIDGQAHLKMDVDVEGNFNGRDTRDRVTEIWIVDKINGRWLVSEVRFVKR” registered a protease stability score of 1.13. Turning to “DEEEKHDTFMTEIFKEIYQTGDEDALATMADPDTRLIIRIGDYTEENHGWKFFIEKLMRLIRKVKNLRYIETRDHVFDGQSHIHGILIINGRKREVEIIIYIFDGRIKSIEIRIV”, the protease stability score came out at 1.79. Sequence “DEEEKHHHELFKEWSRSLITGDFTTMERMIDPNARFEINGVEFHGMDTLRKFTEHLGWEIEHVHDHRIEVYDGVDHVDTKIRGRIDGRRTETRARIILFIYDGRIKSIHEETK” displayed a protease stability score of 0.631.

The sequence “DEEEKHIRKMAEDLKRAFATGDWELLLEMFDPDVRINIIVNGRIIEEHGMENHVRKHVELGITVRLKDEHVESQGNWAHHEGRLEVNVNGKEKSFDVHINLLIVNGRLKESHLKIE” returned a protease stability score of 2.07. “DEEEKHLKKLKDMEWKLFETGNEDEIAKLADPNTRTEIDFNGVRIILHGRHVFAKYLTRWWRSLGIDHIRLEEMDIQGDYVTIRGKEDYNGKEKRVTIIIVIVDGRLKEIHVDVR” gave a protease stability score of 0.967. Regarding “DEEEKHLRDMMEIVIKLFMTGDWDAFHEMADPDVKFQVDVGDKHIHRHGREEVVEELIRLLEHWRVRNIRIHDIKLIGDKLVVEGRWETSYGDKSHDEDVELIVIVVDGKIKKVRIIIR”, the protease stability score was 2.72.

In the case of “DEEEKHSEDIADLMLRWWLTGDFELLAKYADPRVRLDINGREFHGREEYEEVMKDLIRRFKNVKIEIRDYEIQGEKVHVDTRLHINGKTHTVHLTFVVIDGVIKSESIRVR”, the protease stability score was found to be 1.27.

“DEEEKHVRKMVEIESHSHQTGDFDSIRELADPHMRIDINGVELHGWKEFERFLREIRVHHIKIKSVRDINGVAVVDTIVHGHIDGRTDTFDAHVVILKINGQWRIKSIKIE” showed a protease stability score of 0.918. The figure for “DEEEKHWTTLIEIHFKDLLTGDEDSNLHLADPDYRLRMHFDGRELIFIGREEIHKFWHETVHKFKNMRIEINDSDIQGDKFDVDIAIRIDGVEIRYRLIIILFNGRTHRQEVHNI” is 1.3; for “DEEEKIAEEMFRRWVELRETGNEDDRRRLADPHTRMVINGVEYHGRDQFTKFLEHVRREWRYEDNKERDVKFQGDKIEINGREVSHFDGKTVTTDVRIEIVVVNGRLKRFNIHVH” it is 1.38. Then “DEEEKIARELSRLLAEIIETGDEDILLRMVDPHARFIINGKTIIGRETMWELWRRHVEKLGVSRIISRLRRIHVIDGRVHVHIEETFNGRTQEVRVDYMKIDGVWLIHEISIE”, with 1.35; and “DEEEKIIEHVLRLLAEALSTGDEDTLDKLVDPNARVMIDGVDIHGMESMTEWLKHLRIERVHVELRDYREFNGKIHVDGVLHVDRRIGDKREHVSSKTTFIFTKVDGRWKVESIKIK”, with 2.42; and “DEEEKILEEFLEIWIEAVATGDEEVLEHLMDPNTRVHILVGDKTLDVHGMEFFKRHIKILGADHIEWRIRHKEVINGRIHTRGELILRQGDKERRIDVEIILVVVNGRLKNSEVRER”, with 1.43. On to “DEEEKILHDALEELKREFETGDEELWQRLADPHTRVEVGDKEYHGREEFVKMMSDFVRHLRWEELRIRSVHAQGEKVITHIELEMNIDGRREIHNVTIIMRKINGRWHIEFMHKR”, for which the protease stability score stood at 0.926.

The sequence “DEEEKILLHLLNVILHLLKTGDEEMMTELMDPNMKIDNENHKSHGWEALKFVRDQIRIHSINIREQRVQGEFAILRVDVDVEWNGRRIRTEIELHFVFVNGRVKEVHIQVK” displayed a protease stability score of 1.02.

These data come from the NTF2 design screens of Basanta et al. (2020).
